Experimental data from paper PMC2824011.

Substrate: O=c1ccc2nc3ccc(O[C@H]4O[C@H](CO)[C@@H](O)[C@H](O)[C@@H]4O)cc3oc-2c1
Assay: continuous fluorometric kinetic assay of purified enzyme
Assay type: biochemical, Drosophila melanogaster

B1: Golgi α-mannosidase II (dGMII) (Drosophila melanogaster) (protein)
chain: DDPIRPPLKVARSPRPGQCQDVVQDVPNVDVQMLELYDRMSFKDIDGGVWKQGWNIKYDPLKYNAHHKLKVFVVPHSHNDPGWIQTFEEYYQHDTKHILSNALRHLHDNPEMKFIWAEISYFARFYHDLGENKKLQMKSIVKNGQLEFVTGGWVMPDEANSHWRNVLLQLTEGQTWLKQFMNVTPTASWAIDPFGHSPTMPYILQKSGFKNMLIQRTHYSVKKELAQQRQLEFLWRQIWDNKGDTALFTHMMPFYSYDIPHTCGPDPKVCCQFDFKRMGSFGLSCPWKVPPRTISDQNVAARSDLLVDQWKKKAELYRTNVLLIPLGDDFRFKQNTEWDVQRVNYERLFEHINSQAHFNVQAQFGTLQEYFDAVHQAERAGQAEFPTLSGDFFTYADRSDNYWSGYYTSRPYHKRMDRVLMHYVRAAEMLSAWHSWDGMARIEERLEQARRELSLFQHHDGITGTAKTHVVVDYEQRMQEALKACQMVMQQSVYRLLTKPSIYSPDFSFSYFTLDDSRWPGSGVEDSRTTIILGEDILPSKHVVMHNTLPHWREQLVDFYVSSPFVSVTDLANNPVEAQVSPVWSWHHDTLTKTIHPQGSTTKYRIIFKARVPPMGLATYVLTISDSKPEHTSYASNLLLRKNPTSLPLGQYPEDVKFGDPREISLRVGNGPTLAFSEQGLLKSIQLTQDSPHVPVHFKFLKYGVRSHGDRSGAYLFLPNGPASPVELGQPVVLVTKGKLESSVSVGLPSVVHQTIMRGGAPEIRNLVDIGSLDNTEIVMRLETHIDSGDIFYTDLNGLQFIKRRRLDKLPLQANYYPIPSGMFIEDANTRLTLLTGQPLGGSSLASGELEIMQDRRLASDDERGLGQGVLDNKPVLHIYRLVLEKVNNCVRPSELHPAGYLTSAAHKASQSLLDPLDKFIFAENEWIGAQGQFGGDHPSAREDLDVSVMRRLTKSSAKTQRVGYVLHRTNLMQCGTPEEHTQKLDVCHLLPNVARCERTTLTFLQNLEHLDGMVAPEVCPMETAAYVSSHSS
In the case of B1, the Km is reported as 200 (±73) μM.
